Measurements as given in paper PMC7435274.

How the values were obtained:
[1] = target: Cys^6-antag: secretin antagonist (c[E^16, K^20], Y^10, I^17, Cha^22, R^25)sec(5–27) with cysteine in position 6; test: cysteine trapping with 125I-labeled probe, SDS-PAGE autoradiography densitometry; conditions: SecR cysteine replacement mutants transiently expressed in COS-1 cells; nonreducing conditions; three experiments; read off a plot
[2] = target: Cys^5-antag: secretin antagonist (c[E^16, K^20], Y^10, I^17, Cha^22, R^25)sec(5–27) with cysteine in position 5; test: as above; conditions: SecR cysteine replacement mutants transiently expressed in COS-1 cells; nonreducing conditions; three experiments; read off a plot

| Substance | response (% of maximal signal within this loop) [1] | response (% of maximal signal within this loop) [2] |
| --- | --- | --- |
| wild-type human secretin receptor, on COS-1 cells (from UniProt P47872) F371C | 40 | 22 |
| wild-type human secretin receptor, on COS-1 cells (from UniProt P47872) S361C | 80 | 87 |
| wild-type human secretin receptor, on COS-1 cells (from UniProt P47872) E363C | 21 | 22 |
| wild-type human secretin receptor, on COS-1 cells (from UniProt P47872) A359C | 98 | 88 |
| wild-type human secretin receptor, on COS-1 cells (from UniProt P47872) E367C | 12 | 4 |
| wild-type human secretin receptor, on COS-1 cells (from UniProt P47872) E373C | 62 | 28 |
| wild-type human secretin receptor, on COS-1 cells (from UniProt P47872) L374C | 88 | 35 |
| wild-type human secretin receptor, on COS-1 cells (from UniProt P47872) I368C | 20 | 12 |
| wild-type human secretin receptor, on COS-1 cells (from UniProt P47872) P362C | 40 | 30 |
| wild-type human secretin receptor, on COS-1 cells (from UniProt P47872) F360C | 70 | 63 |
| wild-type human secretin receptor, on COS-1 cells (from UniProt P47872) A365C | 37 | 22 |
| wild-type human secretin receptor, on COS-1 cells (from UniProt P47872) Q369C | 41 | 14 |
| wild-type human secretin receptor, on COS-1 cells (from UniProt P47872) D364C | 33 | 22 |
| wild-type human secretin receptor, on COS-1 cells (from UniProt P47872) F372C | 46 | 28 |
| wild-type human secretin receptor, on COS-1 cells (from UniProt P47872) L370C | 43 | 19 |
| wild-type human secretin receptor, on COS-1 cells (from UniProt P47872) F358C | 93 | 75 |
| wild-type human secretin receptor, on COS-1 cells (from UniProt P47872) M366C | 35 | 18 |
